What was measured:
人IL-23 (Bio IL-23) = molecular target: T1, 人IL-23 (Bio IL-23) (human, UniProt Q9NPF7 20-189; P29460 23-328, biotin-labelled (Bio IL-23); sites not stated); assay: ELISA: Bio IL-23 at 1 μg/ml captured on Neutravidin, antibody in serial dilution
T1 construct: also called hIL-23
T1 sequence (looked up) 1: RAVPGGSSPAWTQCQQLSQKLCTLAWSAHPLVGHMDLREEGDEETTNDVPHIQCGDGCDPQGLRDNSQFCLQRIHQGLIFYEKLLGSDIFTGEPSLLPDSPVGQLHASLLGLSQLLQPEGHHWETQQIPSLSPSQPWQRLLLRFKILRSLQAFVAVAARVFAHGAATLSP
T1 sequence (looked up) 2: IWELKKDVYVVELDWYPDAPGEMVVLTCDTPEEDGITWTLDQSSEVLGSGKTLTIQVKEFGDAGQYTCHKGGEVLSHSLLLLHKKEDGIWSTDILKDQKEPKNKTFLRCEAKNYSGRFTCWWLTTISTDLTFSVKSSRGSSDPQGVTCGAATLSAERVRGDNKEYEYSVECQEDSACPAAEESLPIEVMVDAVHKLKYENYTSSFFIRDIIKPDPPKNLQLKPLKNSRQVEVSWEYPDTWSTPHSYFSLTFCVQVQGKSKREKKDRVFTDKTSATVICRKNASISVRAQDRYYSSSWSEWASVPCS

人IL-12 (Bio IL-12) = molecular target: T2, 人IL-12 (Bio IL-12) (human, UniProt P29459 23-219; P29460 23-328, biotin-labelled (Bio IL-12); sites not stated); assay: ELISA: Bio IL-12 at 1 μg/ml captured on Neutravidin, antibody in serial dilution
T2 construct: the p35 subunit is supplied from general knowledge
T2 sequence (looked up) 1: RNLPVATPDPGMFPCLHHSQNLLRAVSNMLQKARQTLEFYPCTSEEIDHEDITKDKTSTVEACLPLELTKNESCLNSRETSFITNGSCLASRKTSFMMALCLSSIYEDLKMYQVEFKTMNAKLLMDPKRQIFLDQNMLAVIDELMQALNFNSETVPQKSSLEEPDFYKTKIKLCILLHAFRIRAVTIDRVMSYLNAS
T2 sequence (looked up) 2: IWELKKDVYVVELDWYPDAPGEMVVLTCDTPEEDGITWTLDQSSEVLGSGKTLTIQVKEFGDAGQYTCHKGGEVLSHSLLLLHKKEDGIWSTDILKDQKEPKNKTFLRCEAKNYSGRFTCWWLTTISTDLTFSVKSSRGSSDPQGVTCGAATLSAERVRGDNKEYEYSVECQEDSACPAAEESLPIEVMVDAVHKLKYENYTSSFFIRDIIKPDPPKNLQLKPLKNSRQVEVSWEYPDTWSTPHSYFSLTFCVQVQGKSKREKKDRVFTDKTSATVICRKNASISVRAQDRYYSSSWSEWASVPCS

B1: 抗人IL-23P19单克隆抗体(第一抗体) (antibody, V domains shown)
VH: QEQLEESGGGLVKPGGTLTLTCKASGFDFTTYNYMCWVRQAPGKGLEWIACIYTTKTNTWYASWAKGRFTISKTSSTTVTLQMTSLTAADTATYFCARGGWDNLSLWGPGTLVTVSS
VL: AALTQTPASVSAAVGGTVTIKCQSSQSVYSNNYLAWYQQKPGQPPKVLIYAASTLASGVPSRFSGSGSGTQFTLTISGVQCDDAATYYCLGGYDDDAVFGGGTEVVVKG
notes: also called 抗人IL-23第一抗体; 包被抗体
B1: binds (人IL-23 (Bio IL-23)); no binding (人IL-12 (Bio IL-12)).
